To fix the notation:
B1: toripalimab Fab H.E54Y (Fab, V domains shown)
VH: QGQLVQSGAEVKKPGASVKVSCKASGYTFTDYEMHWVRQAPIHGLEWIGVIESYTGGTAYNQKFKGRVTITADKSTSTAYMELSSLRSEDTAVYYCAREGITTVATTYYWYFDVWGQGTTVTVSS
VL: DVVMTQSPLSLPVTLGQPASISCRSSQSIVHSNGNTYLEWYLQKPGQSPQLLIYKVSNRFSGVPDRFSGSGSGTDFTLKISRVEAEDVGVYYCFQGSHVPLTFGQGTKLEIK
notes: heavy chain of Sm3 with this change; numbers count from the chain's first residue; as the light chain of Sm3; source: Brevibacillus, culture supernatant (ammonium sulfate precipitate); not shown: 6xHis, C-terminal, kept; 6xHN, C-terminal, kept
B2: toripalimab Fab H.K63Y (Fab, V domains shown)
VH: B1 VH with Y54E, K63Y
VL: B1 VL
notes: as for B1
B3: toripalimab Fab H.A59Y (Fab, V domains shown)
VH: B1 VH with Y54E, A59Y
VL: B1 VL
notes: as for B1
B4: toripalimab Fab H.G56A (Fab, V domains shown)
VH: B1 VH with Y54E, G56A
VL: B1 VL
notes: as for B1
B5: toripalimab Fab H.N61A (Fab, V domains shown)
VH: B1 VH with Y54E, N61A
VL: B1 VL
notes: as for B1
B6: toripalimab Fab H.T55Y (Fab, V domains shown)
VH: B1 VH with Y54E, T55Y
VL: B1 VL
notes: as for B1
B7: toripalimab Fab H.G57Y (Fab, V domains shown)
VH: B1 VH with Y54E, G57Y
VL: B1 VL
notes: as for B1
B8: toripalimab Fab H.Y32A (Fab, V domains shown)
VH: B1 VH with Y32A, Y54E
VL: B1 VL
notes: as for B1
B9: toripalimab Fab H.F64A (Fab, V domains shown)
VH: B1 VH with Y54E, F64A
VL: B1 VL
notes: as for B1
B10: toripalimab Fab H.Q62Y (Fab, V domains shown)
VH: B1 VH with Y54E, Q62Y
VL: B1 VL
notes: as for B1
B11: toripalimab Fab H.Y60A (Fab, V domains shown)
VH: B1 VH with Y54E, Y60A
VL: B1 VL
notes: as for B1
B12: toripalimab Fab H.F64Y (Fab, V domains shown)
VH: B1 VH with Y54E, F64Y
VL: B1 VL
notes: as for B1
B13: toripalimab Fab H.T58A (Fab, V domains shown)
VH: B1 VH with Y54E, T58A
VL: B1 VL
notes: as for B1
B14: toripalimab Fab H.T55A (Fab, V domains shown)
VH: B1 VH with Y54E, T55A
VL: B1 VL
notes: as for B1
B15: toripalimab Fab H.G56Y (Fab, V domains shown)
VH: B1 VH with Y54E, G56Y
VL: B1 VL
notes: as for B1
B16: toripalimab Fab H.Q62A (Fab, V domains shown)
VH: B1 VH with Y54E, Q62A
VL: B1 VL
notes: as for B1
B17: toripalimab Fab H.N61Y (Fab, V domains shown)
VH: B1 VH with Y54E, N61Y
VL: B1 VL
notes: as for B1
B18: toripalimab Fab H.T58Y (Fab, V domains shown)
VH: B1 VH with Y54E, T58Y
VL: B1 VL
notes: as for B1
B19: toripalimab Fab H.D31Y (Fab, V domains shown)
VH: B1 VH with D31Y, Y54E
VL: B1 VL
notes: as for B1
B20: toripalimab Fab H.K63A (Fab, V domains shown)
VH: B1 VH with Y54E, K63A
VL: B1 VL
notes: as for B1
B21: toripalimab Fab H.G57A (Fab, V domains shown)
VH: B1 VH with Y54E, G57A
VL: B1 VL
notes: as for B1

Kd, koff and kon data for 21 molecules are collected here from article PMC10663500, “High-throughput analysis system of interaction kinetics for data-driven antibody design” (Scientific Reports, 2023).

Substitutions are numbered along the chain they refer to.

One assay concerns the target T1, mouse programmed cell death protein 1 Fc fusion protein (mPD-1-Fc), mPD-1 C60S (aa 25-167) (Mus musculus, UniProt Q02242, stabilised).
T1 construct: not cleaved; source: Expi293F, purified (Protein A, SEC; dimeric fraction); not shown: Fc (human), C-terminal, kept
As to the kind of experiment: SPR; Carterra LSA; Fab from the ammonium sulfate precipitate of the culture supernatant immobilised on a NiHC200M chip; hPD-1 (1-1024 nM) or mPD-1-Fc (4-1024 nM) as analyte, fourfold dilution series, no regeneration; HBS-EP pH 7.4, 25 °C; medians over the spots of a construct, KD = koff/kon. The following applies: one partner purified. The essentials:
(§1)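 Human PD-1 (1–1024 nM) or mouse PD-1-Fc (4–1024 nM), in fourfold series, was flowed without regeneration over Fabs captured in duplicate on a NiHC200M chip (Carterra LSA, 25 °C), using 10 min association and 5 min dissociation. The Fabs had been recovered from Brevibacillus culture supernatants by ammonium sulfate precipitation and redissolved in HBS-EP. For binding constants, KD was defined as koff/kon from per-construct medians, with rates fitted by the kdka model under slow- or fast-dissociation settings (best fit) and unconfirmed binders set to kon 10^3 […] and koff 10^−2 s^−1.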
(In SPR one partner is held on a chip, and binding of the other changes the refractive index at the surface.)
The molecule B1 had a Kd of 80.3 nM, a koff of 0.00402 s⁻¹ and a kon of 50100 M⁻¹ s⁻¹.

In turn, B2 had a dissociation constant (Kd) of 75.7 nM, a koff of 0.00458 s⁻¹ and a kon of 60400 M⁻¹ s⁻¹.

Take B3: the Kd is 345 nM, the koff is 0.0135 s⁻¹ and the kon turned out to be 39200 M⁻¹ s⁻¹.

For the molecule B4, the Kd amounted to 154 nM, the koff is 0.00466 s⁻¹ and the kon was found to be 30200 M⁻¹ s⁻¹.

On to B5, for which the Kd turned out to be 32 nM, the koff came out at 0.00141 s⁻¹ and the kon worked out at 44100 M⁻¹ s⁻¹.

The molecule B6 had a Kd of 35.8 nM, a koff of 0.00179 s⁻¹ and a kon of 49900 M⁻¹ s⁻¹.

B7 had a Kd of 90.3 nM, a koff of 0.00664 s⁻¹ and an on-rate (kon) of 73500 M⁻¹ s⁻¹.

In turn, B8 displayed a Kd of 1310 nM, an off-rate (koff) of 0.0613 s⁻¹ and a kon of 46900 M⁻¹ s⁻¹.

For the molecule B9, the Kd is 59.7 nM, the koff is 0.00193 s⁻¹ and the kon is 32400 M⁻¹ s⁻¹.

With B10, the Kd came to 186 nM, the koff stood at 0.00625 s⁻¹ and the kon was found to be 33600 M⁻¹ s⁻¹.

With B11, binding was put at a Kd of 88.2 nM, the off-rate constant (koff) worked out at 0.00422 s⁻¹ and the kon was 47900 M⁻¹ s⁻¹.

Consider B12, for which the equilibrium dissociation constant (Kd) worked out at 36.3 nM, the koff came to 0.00224 s⁻¹ and the kon came to 61600 M⁻¹ s⁻¹.

In turn, B13 gave a Kd of 169 nM, a dissociation rate constant (koff) of 0.0066 s⁻¹ and an association rate constant (kon) of 39000 M⁻¹ s⁻¹.

Molecule B14 came in with a Kd of 411 nM, a koff of 0.0151 s⁻¹ and a kon of 36800 M⁻¹ s⁻¹.

Consider B15, for which binding was put at a Kd of 502 nM, the koff is 0.0174 s⁻¹ and the on-rate constant (kon) is 34700 M⁻¹ s⁻¹.

Molecule B16 showed a Kd of 153 nM, a koff of 0.00564 s⁻¹ and an on-rate constant (kon) of 37000 M⁻¹ s⁻¹.

B17 yielded a Kd of 147 nM, a koff of 0.00562 s⁻¹ and a kon of 38100 M⁻¹ s⁻¹.

The molecule B18 returned a Kd of 215 nM, a koff of 0.0107 s⁻¹ and a kon of 49600 M⁻¹ s⁻¹.

Take B19: the Kd is 291 nM, the koff came to 0.0133 s⁻¹ and the kon was determined as 45600 M⁻¹ s⁻¹.

B20 yielded a Kd of 71.3 nM, a koff of 0.00524 s⁻¹ and a kon of 73600 M⁻¹ s⁻¹.

Molecule B21 registered a Kd of 125 nM, a koff of 0.00625 s⁻¹ and a kon of 50100 M⁻¹ s⁻¹.

The target in the next assay is T2, human programmed cell death protein 1 (hPD-1) C93S (aa 24-167) (Homo sapiens, UniProt Q15116, C93S).
T2 construct: made as a fusion with a TEV site and human Fc; the Fc was cut off with TEV protease; source: Expi293F, purified (Protein A, TEV cleavage of Fc, SEC; monomer fractions); not shown: Fc (human), C-terminal, cleaved
T2 sequence (Q15116 24-167 C93S): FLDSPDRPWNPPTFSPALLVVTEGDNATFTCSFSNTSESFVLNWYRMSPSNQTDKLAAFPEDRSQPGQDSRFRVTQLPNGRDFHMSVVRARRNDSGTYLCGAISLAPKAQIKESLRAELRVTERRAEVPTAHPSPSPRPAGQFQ
The description is as above. The conditions noted are these: one partner purified. In a few lines:
as §1
B1: the Kd was less than 0.326 nM, the koff was less than 1e-05 s⁻¹ and the kon turned out to be 30700 M⁻¹ s⁻¹.

In turn, B2 displayed a Kd of less than 0.226 nM, a koff of less than 1e-05 s⁻¹ and a kon of 44300 M⁻¹ s⁻¹.

On to B3, for which binding was put at a Kd of 2.18 nM, the koff is 4.81e-05 s⁻¹ and the kon turned out to be 22100 M⁻¹ s⁻¹.

Consider B4, for which the Kd was less than 1.46 nM, the koff is less than 1e-05 s⁻¹ and the kon was 6870 M⁻¹ s⁻¹.

In turn, B5 displayed a Kd of less than 0.355 nM, a koff of less than 1e-05 s⁻¹ and a kon of 28100 M⁻¹ s⁻¹.

Regarding B6, the Kd is less than 0.354 nM, the koff was less than 1e-05 s⁻¹ and the on-rate (kon) came to 28300 M⁻¹ s⁻¹.

In turn, B7 had a Kd of 3.35 nM, a koff of 0.000138 s⁻¹ and a kon of 41100 M⁻¹ s⁻¹.

For the molecule B8, the dissociation constant Kd was 4.68 nM, the off-rate (koff) was 7.41e-05 s⁻¹ and the kon stood at 15800 M⁻¹ s⁻¹.

As for B9, the Kd is less than 1.4 nM, the koff is less than 1e-05 s⁻¹ and the kon worked out at 7170 M⁻¹ s⁻¹.

Take B10: the Kd is less than 1.29 nM, the koff is less than 1e-05 s⁻¹ and the kon is 7750 M⁻¹ s⁻¹.

For B11, the dissociation constant (Kd) was less than 0.309 nM, the koff was less than 1e-05 s⁻¹ and the kon is 32300 M⁻¹ s⁻¹.

B12 gave a Kd of 1.17 nM, a koff of 3.98e-05 s⁻¹ and a kon of 34200 M⁻¹ s⁻¹.

Molecule B13 registered a Kd of less than 0.662 nM, a koff of less than 1e-05 s⁻¹ and a kon of 15100 M⁻¹ s⁻¹.

As to B14, the Kd was 5.76 nM, the koff turned out to be 4.01e-05 s⁻¹ and the kon was found to be 6960 M⁻¹ s⁻¹.

B15: the Kd was less than 1.7 nM, the koff is less than 1e-05 s⁻¹ and the kon was determined as 5890 M⁻¹ s⁻¹.

B16 had a Kd of less than 1.29 nM, a koff of less than 1e-05 s⁻¹ and a kon of 7730 M⁻¹ s⁻¹.

As for B17, the Kd is less than 0.156 nM, the off-rate (koff) was less than 1e-05 s⁻¹ and the on-rate (kon) was 64200 M⁻¹ s⁻¹.

B18 showed a Kd of 1.26 nM, a dissociation rate constant (koff) of 1.54e-05 s⁻¹ and a kon of 12300 M⁻¹ s⁻¹.

Regarding B19, the Kd is less than 0.349 nM, the dissociation rate constant (koff) is less than 1e-05 s⁻¹ and the association rate constant (kon) came out at 28600 M⁻¹ s⁻¹.

Turning to B20, the Kd is less than 0.248 nM, the off-rate constant (koff) was less than 1e-05 s⁻¹ and the kon was 40300 M⁻¹ s⁻¹.

Consider B21, for which the Kd is 0.598 nM, the koff came to 1.47e-05 s⁻¹ and the kon turned out to be 24500 M⁻¹ s⁻¹.

A word on the Kd: it is a measure of binding affinity in units of concentration. The term koff denotes a measure of how fast the partners let go of each other. Usually kon stands for the rate constant with which the complex forms. Read a high kon as faster complex formation.
